Source: article PMC3334620

The sequences below were run against T1, Zap1 (Saccharomyces cerevisiae) (UniProt P47043). Settings: 200 nM.
T1 sequence: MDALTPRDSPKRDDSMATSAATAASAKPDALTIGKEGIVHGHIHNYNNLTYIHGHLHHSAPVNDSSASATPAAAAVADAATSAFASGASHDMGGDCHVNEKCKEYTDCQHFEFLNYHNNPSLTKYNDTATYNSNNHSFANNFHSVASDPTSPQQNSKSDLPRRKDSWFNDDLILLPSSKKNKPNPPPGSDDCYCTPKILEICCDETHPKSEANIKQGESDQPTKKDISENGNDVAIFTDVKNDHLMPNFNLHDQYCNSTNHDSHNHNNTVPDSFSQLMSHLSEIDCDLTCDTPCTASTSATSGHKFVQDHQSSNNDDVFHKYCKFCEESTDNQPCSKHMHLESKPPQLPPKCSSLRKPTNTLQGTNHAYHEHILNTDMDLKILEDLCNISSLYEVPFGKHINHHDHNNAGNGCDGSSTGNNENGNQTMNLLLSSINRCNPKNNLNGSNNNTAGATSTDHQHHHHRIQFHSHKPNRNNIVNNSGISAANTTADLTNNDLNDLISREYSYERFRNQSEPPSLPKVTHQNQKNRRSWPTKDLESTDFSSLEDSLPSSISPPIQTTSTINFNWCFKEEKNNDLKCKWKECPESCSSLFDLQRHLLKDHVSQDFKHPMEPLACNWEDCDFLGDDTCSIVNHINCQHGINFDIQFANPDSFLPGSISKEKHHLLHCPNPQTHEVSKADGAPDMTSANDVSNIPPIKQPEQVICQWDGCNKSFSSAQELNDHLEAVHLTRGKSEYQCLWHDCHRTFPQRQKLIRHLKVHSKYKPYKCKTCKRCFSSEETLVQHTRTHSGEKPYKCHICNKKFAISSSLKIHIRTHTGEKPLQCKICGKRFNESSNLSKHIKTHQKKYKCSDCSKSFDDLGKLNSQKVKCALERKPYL
Work on “AAAGGTTA (double strand) [8-mer AAAGGTTA]” yielded a binding signal (PBM E-score (-0.5 to 0.5)) of 0.479.
Work on “AAGGGTTA (double strand) [8-mer AAGGGTTA]” yielded a binding signal (PBM E-score (-0.5 to 0.5)) of 0.489.
“AAGGTTAT (double strand) [8-mer AAGGTTAT]” gave a binding signal (PBM E-score (-0.5 to 0.5)) of 0.478.
“AGAGGTTA (double strand) [8-mer AGAGGTTA]” was tested, and the binding signal (PBM E-score (-0.5 to 0.5)) was 0.476.
Sequence “AGGGGTTA (double strand) [8-mer AGGGGTTA]” has a binding signal (PBM E-score (-0.5 to 0.5)) of 0.479.
“AGGGTTAC (double strand) [8-mer AGGGTTAC]” gave a binding signal (PBM E-score (-0.5 to 0.5)) of 0.484.
In the case of “AGGGTTAT (double strand) [8-mer AGGGTTAT]”, the binding signal (PBM E-score (-0.5 to 0.5)) is reported as 0.49.
Work on “AGGTTACC (double strand) [8-mer AGGTTACC]” yielded a binding signal (PBM E-score (-0.5 to 0.5)) of 0.476.
“ATAACCCC (double strand) [8-mer ATAACCCC]” was tested, and the binding signal (PBM E-score (-0.5 to 0.5)) was 0.476.
Work on “ATAACCTC (double strand) [8-mer ATAACCTC]” yielded a binding signal (PBM E-score (-0.5 to 0.5)) of 0.487.
With “CAGGGTTA (double strand) [8-mer CAGGGTTA]” the binding signal (PBM E-score (-0.5 to 0.5)) was 0.477.
With “CATAACCC (double strand) [8-mer CATAACCC]” the binding signal (PBM E-score (-0.5 to 0.5)) was 0.482.
“CCATAACC (double strand) [8-mer CCATAACC]” gave a binding signal (PBM E-score (-0.5 to 0.5)) of 0.479.
“CGTAACCC (double strand) [8-mer CGTAACCC]” gave a binding signal (PBM E-score (-0.5 to 0.5)) of 0.482.
“GGTTATGA (double strand) [8-mer GGTTATGA]” was tested, and the binding signal (PBM E-score (-0.5 to 0.5)) was 0.48.

The sequences below were run against T2, Cin5 (Saccharomyces cerevisiae) (UniProt P40917). Settings: 100 nM.
T2 sequence: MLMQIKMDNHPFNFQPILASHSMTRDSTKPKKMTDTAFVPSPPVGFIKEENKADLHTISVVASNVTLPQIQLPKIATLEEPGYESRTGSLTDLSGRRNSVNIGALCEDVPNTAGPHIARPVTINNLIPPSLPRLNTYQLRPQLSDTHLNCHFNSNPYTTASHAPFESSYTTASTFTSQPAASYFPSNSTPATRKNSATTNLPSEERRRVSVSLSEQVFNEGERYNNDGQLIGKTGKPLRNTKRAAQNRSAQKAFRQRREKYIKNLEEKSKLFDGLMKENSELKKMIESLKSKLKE
“ACGTAAGC (double strand) [8-mer ACGTAAGC]” was tested, and the binding signal (PBM E-score (-0.5 to 0.5)) was 0.483.
Sequence “ACGTAATA (double strand) [8-mer ACGTAATA]” has a binding signal (PBM E-score (-0.5 to 0.5)) of 0.455.
Sequence “CGTAAGCA (double strand) [8-mer CGTAAGCA]” has a binding signal (PBM E-score (-0.5 to 0.5)) of 0.463.
Work on “CGTAATCA (double strand) [8-mer CGTAATCA]” yielded a binding signal (PBM E-score (-0.5 to 0.5)) of 0.458.
Work on “CTTACGTA (double strand) [8-mer CTTACGTA]” yielded a binding signal (PBM E-score (-0.5 to 0.5)) of 0.472.
“TGACATAA (double strand) [8-mer TGACATAA]” was tested, and the binding signal (PBM E-score (-0.5 to 0.5)) was 0.462.
With “TGACGTAA (double strand) [8-mer TGACGTAA]” the binding signal (PBM E-score (-0.5 to 0.5)) was 0.453.
In the case of “TTACATAA (double strand) [8-mer TTACATAA]”, the binding signal (PBM E-score (-0.5 to 0.5)) is reported as 0.488.
“TTACCTAA (double strand) [8-mer TTACCTAA]” was tested, and the binding signal (PBM E-score (-0.5 to 0.5)) was 0.451.
In the case of “TTATATAA (double strand) [8-mer TTATATAA]”, the binding signal (PBM E-score (-0.5 to 0.5)) is reported as 0.456.

What follows are sequences tested against T3, Yer184c (Saccharomyces cerevisiae) (UniProt P39961). Settings: 100 nM.
T3 sequence: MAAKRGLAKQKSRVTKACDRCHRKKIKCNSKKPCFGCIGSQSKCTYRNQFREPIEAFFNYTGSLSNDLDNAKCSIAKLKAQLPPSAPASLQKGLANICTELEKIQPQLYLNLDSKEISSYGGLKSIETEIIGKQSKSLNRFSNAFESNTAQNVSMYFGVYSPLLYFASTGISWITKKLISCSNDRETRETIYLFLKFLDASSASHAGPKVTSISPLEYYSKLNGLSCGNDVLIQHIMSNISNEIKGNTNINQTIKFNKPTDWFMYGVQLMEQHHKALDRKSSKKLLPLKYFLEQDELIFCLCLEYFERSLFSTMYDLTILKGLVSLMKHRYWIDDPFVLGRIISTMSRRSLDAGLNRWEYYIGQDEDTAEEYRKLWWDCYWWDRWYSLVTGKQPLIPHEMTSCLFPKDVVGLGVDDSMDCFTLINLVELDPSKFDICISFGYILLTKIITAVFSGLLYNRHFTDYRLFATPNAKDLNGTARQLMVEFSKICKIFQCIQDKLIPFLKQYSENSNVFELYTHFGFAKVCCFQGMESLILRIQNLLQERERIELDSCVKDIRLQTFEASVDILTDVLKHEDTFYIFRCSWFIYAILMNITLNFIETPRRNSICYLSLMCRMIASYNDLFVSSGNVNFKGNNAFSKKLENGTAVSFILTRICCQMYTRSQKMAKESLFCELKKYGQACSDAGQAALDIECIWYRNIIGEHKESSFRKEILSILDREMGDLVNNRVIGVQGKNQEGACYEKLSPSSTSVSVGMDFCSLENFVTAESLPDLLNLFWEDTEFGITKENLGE
“CCGGAAAA (double strand) [8-mer CCGGAAAA]” gave a binding signal (PBM E-score (-0.5 to 0.5)) of 0.46.
In the case of “CCGGCCGG (double strand) [8-mer CCGGCCGG]”, the binding signal (PBM E-score (-0.5 to 0.5)) is reported as 0.486.
Sequence “CGCCGGCG (double strand) [8-mer CGCCGGCG]” has a binding signal (PBM E-score (-0.5 to 0.5)) of 0.485.
For “GCCGCGGC (double strand) [8-mer GCCGCGGC]”, the binding signal (PBM E-score (-0.5 to 0.5)) was 0.475.
In the case of “GTCCGGAC (double strand) [8-mer GTCCGGAC]”, the binding signal (PBM E-score (-0.5 to 0.5)) is reported as 0.464.
In the case of “TATCCGGA (double strand) [8-mer TATCCGGA]”, the binding signal (PBM E-score (-0.5 to 0.5)) is reported as 0.454.
“TCGGCCGA (double strand) [8-mer TCGGCCGA]” showed a binding signal (PBM E-score (-0.5 to 0.5)) of 0.473.

Each sequence was assayed against T4, Sko1 (Saccharomyces cerevisiae) (UniProt Q02100). Settings: 200 nM.
T4 sequence: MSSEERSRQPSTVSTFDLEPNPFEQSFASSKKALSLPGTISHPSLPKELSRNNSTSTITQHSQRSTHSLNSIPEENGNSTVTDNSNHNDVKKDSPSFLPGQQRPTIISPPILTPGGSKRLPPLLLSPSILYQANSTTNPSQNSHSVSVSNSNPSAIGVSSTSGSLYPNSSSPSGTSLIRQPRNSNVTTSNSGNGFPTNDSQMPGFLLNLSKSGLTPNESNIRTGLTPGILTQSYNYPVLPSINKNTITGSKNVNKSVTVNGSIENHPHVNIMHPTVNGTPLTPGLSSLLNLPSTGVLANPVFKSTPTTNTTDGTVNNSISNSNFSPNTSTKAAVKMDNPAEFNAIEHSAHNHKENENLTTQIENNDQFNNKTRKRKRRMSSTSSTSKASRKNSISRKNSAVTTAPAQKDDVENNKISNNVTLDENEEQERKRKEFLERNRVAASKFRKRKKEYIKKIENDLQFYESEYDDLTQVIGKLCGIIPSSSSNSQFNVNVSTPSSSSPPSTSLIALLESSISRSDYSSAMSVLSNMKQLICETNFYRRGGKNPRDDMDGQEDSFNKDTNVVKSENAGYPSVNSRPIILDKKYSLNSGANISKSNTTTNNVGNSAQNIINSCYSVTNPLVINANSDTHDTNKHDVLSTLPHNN
Work on “ACGTAATA (double strand) [8-mer ACGTAATA]” yielded a binding signal (PBM E-score (-0.5 to 0.5)) of 0.493.
“TGACGTAA (double strand) [8-mer TGACGTAA]” gave a binding signal (PBM E-score (-0.5 to 0.5)) of 0.498.
